The source of these data is PMC10277598.

The series deals with CsrA-His6. In words: EMSA. As to conditions: 10 mM MgCl2; apparent Kd, linear regression (54.7 nM in Fig. S5); 0.5 nM labeled RNA, 0-400 nM CsrA, 10 mM MgCl2, 100 mM KCl, 32.5 ng total yeast RNA, 20 mM DTT, 7.5% glycerol, 4 U SUPERasin, 37 C 30 min; native PAGE in 1X ….

On to hflK leader RNA (-86 to +48), for which the Kd amounted to 55 nM.
